Measurements reported in patent US20260297187 (published 2026).
Numbering of substitutions follows the chain as printed. Numbers in names are those of the source.

T1: CEACAM1-his (human)
T1 chain: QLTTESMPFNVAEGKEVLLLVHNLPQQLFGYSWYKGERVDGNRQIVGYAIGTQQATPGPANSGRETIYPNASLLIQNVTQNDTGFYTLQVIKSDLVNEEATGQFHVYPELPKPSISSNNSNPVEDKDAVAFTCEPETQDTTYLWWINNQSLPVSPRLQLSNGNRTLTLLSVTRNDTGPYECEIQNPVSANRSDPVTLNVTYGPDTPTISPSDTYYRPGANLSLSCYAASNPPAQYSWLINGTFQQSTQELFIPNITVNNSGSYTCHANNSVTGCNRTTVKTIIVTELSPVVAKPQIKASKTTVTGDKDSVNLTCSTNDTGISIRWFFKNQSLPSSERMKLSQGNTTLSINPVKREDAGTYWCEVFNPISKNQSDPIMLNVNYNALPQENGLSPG

B1: h2C10.G4.H0aL0a (antibody, V domains shown)
VH: QVQLVQSGAEVKKPGASVKVSCKASGFAFTNYLIEWVRQAPGQGLEWMGVLNPGSGATNYNEKFKGRVTMTRDTSISTAYMELSRLRSDDTAVYYCARGIYGGYFAMDYWGQGTLVTVSS
VL: DIQMTQSPSSLSASVGDRVTITCRASQDITTYLNWYQQKPGKAPKLLIYYTSRLHSGVPSRFSGSGSGTDFTFTISSLQPEDIATYYCQQGNTLPRTFGQGTKVEIK
B2: h2C10.G4.H3L4 (antibody, V domains shown)
VH: B1 VH with R72A
VL: B1 VL with K42G, F73L, Q100G, V104L
B3: h2C10.G4.H3L2 (antibody, V domains shown)
VH: B1 VH with R72A
VL: B1 VL with P8T, K42G, F71Y, F73L, Q100G, V104L
B4: h2C10.G4.H3L3 (antibody, V domains shown)
VH: B1 VH with R72A
VL: B1 VL with K42G, F71Y, F73L, Q100G, V104L
B5: h2C10.G4.H0aL3 (antibody, V domains shown)
VH: B1 VH
VL: B1 VL with K42G, F71Y, F73L, Q100G, V104L
B6: h2C10.G4.H0aL0b (antibody, V domains shown)
VH: B1 VH
VL: B1 VL with F73L, I83F
B7: h2C10.G4.H3L1 (antibody, V domains shown)
VH: B1 VH with R72A
VL: B1 VL with F73L
B8: h2C10.G4.H0aL1 (antibody, V domains shown)
VH: B1 VH
VL: B1 VL with F73L
B9: h4D10.G4.H4L1 (antibody, V domains shown)
VH: QVQLVQSGAEVKKPGASVKVSCKASGYTFSSYVIHWVRQAPGQGLEWMGYFNPYNNGTNYNENFKGRVTMTADTSTSTVYMELSSLRSEDTAVYYCARYYYASGSLYFDYWGQGTTVTVSS
VL: DIQLTQSPSFLSASVGDRVTITCSASSSVSYMHWYQQKPGKAPKPLIYEISKLASGVPSRFSGSGSGTEFTLTISSLQPEDAATYYCQQWNYPLITFGGGTKVEIK
B10: h4D10.G4.H3L1 (antibody, V domains shown)
VH: B9 VH with T76I, V79A, S85R, E89D, T116L
VL: B9 VL
B11: h4D10.G4.H0bL1 (antibody, V domains shown)
VH: B9 VH with A72R
VL: B9 VL
B12: h4D10.G4.H0bL2 (antibody, V domains shown)
VH: B9 VH with A72R
VL: B9 VL with L4M, F10T, E80D
B13: h4D10.G4.H3L2 (antibody, V domains shown)
VH: B9 VH with T76I, V79A, S85R, E89D, T116L
VL: B9 VL with L4M, F10T, E80D
B14: h4D10.G4.H4(N56Q Y100V)L2 (antibody, V domains shown)
VH: B9 VH with N56Q, Y100V
VL: B9 VL with L4M, F10T, E80D
B15: h4D10.G4.H4(N56I Y100F)L2 (antibody, V domains shown)
VH: B9 VH with N56I, Y100F
VL: B9 VL with L4M, F10T, E80D
B16: h4D10.G4.H4(N56V Y100W)L2 (antibody, V domains shown)
VH: B9 VH with N56V, Y100W
VL: B9 VL with L4M, F10T, E80D
B17: h4D10.G4.H4(N56W Y100F)L2 (antibody, V domains shown)
VH: B9 VH with N56W, Y100F
VL: B9 VL with L4M, F10T, E80D
B18: h4D10.G4.H4(N56V Y100V)L2 (antibody, V domains shown)
VH: B9 VH with N56V, Y100V
VL: B9 VL with L4M, F10T, E80D
B19: h4D10.G4.H4(N56I Y100W)L2 (antibody, V domains shown)
VH: B9 VH with N56I, Y100W
VL: B9 VL with L4M, F10T, E80D
B20: h4D10.G4.H4(N56W Y100W)L2 (antibody, V domains shown)
VH: B9 VH with N56W, Y100W
VL: B9 VL with L4M, F10T, E80D
B21: h4D10.G4.H4(N56Q Y100W)L2 (antibody, V domains shown)
VH: B9 VH with N56Q, Y100W
VL: B9 VL with L4M, F10T, E80D
B22: h4D10.G4.H4(N56I Y100V)L2 (antibody, V domains shown)
VH: B9 VH with N56I, Y100V
VL: B9 VL with L4M, F10T, E80D
B23: h4D10.G4.H4(N56V Y100F)L2 (antibody, V domains shown)
VH: B9 VH with N56V, Y100F
VL: B9 VL with L4M, F10T, E80D
B24: h4D10.G4.H4(N56W Y100V)L2 (antibody, V domains shown)
VH: B9 VH with N56W, Y100V
VL: B9 VL with L4M, F10T, E80D
B25: 2G12 (antibody, V domains shown)
VH: QIQLVQSGPELKKPGETVKISCKASGYSFTHHGMNWVKQAPGKDLKWMGWINTYTGEPTYADDFRGRFAFSLETSASTAYLQINNLKSEDTATYFCARKDYYISGNFDYWGQGTTLTVSS
VL: DIQMTQSPSSLSASLGERVSLTCRASQDIGSNLNWLQQEPDGTIKRLIYATSSLDSGVPKRFSGSRSGSDYSLTISSLESEDFVDYYCLQYASSPYTFGGGTKLEIK
B26: 5D5.G4 (antibody, V domains shown)
VH: B25 VH with S28T, F29L, H31N, H32Y, K43T, R65K, S88N, I103V
VL: B25 VL
B27: P23B6 (antibody, V domains shown)
VH: QVQLLQPGAEPVKPGTSVKLSCKASGYNFTSYWLNWVKLRPGQGLEWIGDIHPGRGSINYNEKFKSKAILTVDTSSRTAYIQLSSLASEDSALYYCARADGSWFVYWGQGTLVTVSA
VL: DIVLTQSPASLAVSLGQRATISCRASQSVSTSSYSYMHWYQQKPGQPPKLLIKYASNLESGVPARFSGSGSGTDFTLNIHPVEEEDTATYYCQHSWEIPWTFGGGTKLEIK
B28: 4H11 (antibody, V domains shown)
VH: QIQLVQSGPELKKPGETVKISCKASGYTLTDYGMNWVSQAPGKGLKWVGWINTYTGEPTYADDFKGRFAFSLDTSASTAYLQINNLKNEDTATYFCARKNIYGYFDVWGAGTTVTVSS
VL: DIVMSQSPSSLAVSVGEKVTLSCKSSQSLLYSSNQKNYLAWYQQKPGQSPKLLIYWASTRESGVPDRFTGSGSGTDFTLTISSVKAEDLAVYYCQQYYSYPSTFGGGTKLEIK

Molecular target: T1, CEACAM1-his
Assay: BLI

| Binder | Kd [nM] |
| --- | --- |
| B1 | 2.15 |
| B2 | 2 |
| B3 | 0.927 |
| B4 | 1.13 |
| B5 | 0.944 |
| B6 | 2.23 |
| B7 | 2.18 |
| B8 | 1.81 |
| B9 | 1.53 |
| B10 | 1.46 |
| B11 | 2.16 |
| B12 | 2.28 |
| B13 | 1.77 |

Molecular target: T1, CEACAM1-his
Assay: BLI
Remark: another data set of the same source

| Binder | Kd [nM] |
| --- | --- |
| B14 | 5.86 |
| B15 | 3.14 |
| B16 | 4.87 |
| B17 | 1.13 |
| B18 | 4.67 |
| B19 | 5.41 |
| B20 | 3.39 |
| B21 | 3.65 |
| B22 | 6.22 |
| B23 | 2.75 |
| B24 | 4.97 |

Molecular target: T1, CEACAM1-his
Assay: BLI
Remark: another data set of the same source

| Binder | Kd [nM] |
| --- | --- |
| B25 | 2.19 |
| B26 | 2.11 |
| B27 | 6.31 |
| B28 | 3.51 |
